Substrate in series [1]: NC(=O)C1=CN([C@@H]2O[C@H](COP(=O)(O)OP(=O)(O)OC[C@H]3O[C@@H](n4cnc5c(N)ncnc54)[C@H](O)[C@@H]3O)[C@@H](O)[C@H]2O)C=CC1
In words: purified protein. The format is biochemical, Scheffersomyces stipitis. The settings on record: 50 mM potassium phosphate pH 6.0.

Substrate in series [2]: NC(=O)C1=CN([C@@H]2O[C@H](COP(=O)(O)OP(=O)(O)OC[C@H]3O[C@@H](n4cnc5c(N)ncnc54)[C@H](OP(=O)(O)O)[C@@H]3O)[C@@H](O)[C@H]2O)C=CC1
In words: purified protein. The format is biochemical, Scheffersomyces stipitis. Conditions: 50 mM potassium phosphate pH 6.0.

Where [3] appears, read: mutant NT-K270R/N272D, 0.5 M xylose.

B1: PsXR (wild-type NT-XR), Pichia stipitis xylose reductase (Scheffersomyces stipitis CBS 6054) (protein)
chain: MPSIKLNSGYDMPAVGFGCWKVDVDTCSEQIYRAIKTGYRLFDGAEDYANEKLVGAGVKKAIDEGIVKREDLFLTSKLWNNYHHPDNVEKALNRTLSDLQVDYVDLFLIHFPVTFKFVPLEEKYPPGFYCGKGDNFDYEDVPILETWKALEKLVKAGKIRSIGVSNFPGALLLDLLRGATIKPSVLQVEHHPYLQQPRLIEFAQSRGIAVTAYSSFGPQSFVELNQGRALNTSPLFENETIKAIAAKHGKSPAQVLLRWSSQRGIAIIPKSNTVPRLLENKDVNSFDLDEQDFADIAKLDINLRFNDPWDWDKIPIFV
The term Km denotes the substrate concentration at which the rate is half of its maximum. Broadly, the kcat is the number of substrate molecules converted per active site and unit of time at saturation. In general, kcat/Km refers to the turnover number divided by the Michaelis constant. Take B1: in the series “purified protein [1]” (0.5 M xylose), the Michaelis-Menten constant (Km) amounted to 0.0106 ± 0.0006 mM, the kcat was 15.4 ± 0.583 s⁻¹ and the kcat/Km worked out at 1.46e+06 ± 112000 M⁻¹ s⁻¹. Moreover, in “purified protein [2]” (0.5 M xylose), the Km was determined as 0.0062 ± 0.0014 mM, the kcat amounted to 27.5 ± 3.28 s⁻¹ and the kcat/Km amounted to 4.65e+06 ± 938000 M⁻¹ s⁻¹.

B2: PsXR (wild-type NT-XR), Pichia stipitis xylose reductase (Scheffersomyces stipitis CBS 6054; K270R/N272D) (protein)
chain: MPSIKLNSGYDMPAVGFGCWKVDVDTCSEQIYRAIKTGYRLFDGAEDYANEKLVGAGVKKAIDEGIVKREDLFLTSKLWNNYHHPDNVEKALNRTLSDLQVDYVDLFLIHFPVTFKFVPLEEKYPPGFYCGKGDNFDYEDVPILETWKALEKLVKAGKIRSIGVSNFPGALLLDLLRGATIKPSVLQVEHHPYLQQPRLIEFAQSRGIAVTAYSSFGPQSFVELNQGRALNTSPLFENETIKAIAAKHGKSPAQVLLRWSSQRGIAIIPRSDTVPRLLENKDVNSFDLDEQDFADIAKLDINLRFNDPWDWDKIPIFV
In the case of B2, in “purified protein [1]” (setting [3]), the Km is on record as 0.058 ± 0.009 mM, the kcat was found to be 17.9 ± 2.07 s⁻¹ and the kcat/Km turned out to be 313000 ± 40000 M⁻¹ s⁻¹. In the series “purified protein [2]” (setting [3]), the Km came out at 0.142 ± 0.031 mM, the kcat was 15.9 ± 3.38 s⁻¹ and the kcat/Km came to 107000 ± 24800 M⁻¹ s⁻¹.

B3: PsXR (wild-type NT-XR), Pichia stipitis xylose reductase (Scheffersomyces stipitis CBS 6054; K270S/N272P/R276F/S271G) (protein)
chain: MPSIKLNSGYDMPAVGFGCWKVDVDTCSEQIYRAIKTGYRLFDGAEDYANEKLVGAGVKKAIDEGIVKREDLFLTSKLWNNYHHPDNVEKALNRTLSDLQVDYVDLFLIHFPVTFKFVPLEEKYPPGFYCGKGDNFDYEDVPILETWKALEKLVKAGKIRSIGVSNFPGALLLDLLRGATIKPSVLQVEHHPYLQQPRLIEFAQSRGIAVTAYSSFGPQSFVELNQGRALNTSPLFENETIKAIAAKHGKSPAQVLLRWSSQRGIAIIPSGPTVPFLLENKDVNSFDLDEQDFADIAKLDINLRFNDPWDWDKIPIFV
With B3, in “purified protein [1]” (mutant 2-2C12, 0.5 M xylose), the Km came to 0.147 ± 0.012 mM, the kcat was 12 ± 0.95 s⁻¹ and the catalytic efficiency (kcat/Km) is 81700 ± 5250 M⁻¹ s⁻¹. For the same protein, in “purified protein [2]” (mutant 2-2C12, 0.5 M xylose), the Km was found to be 0.427 ± 0.017 mM, the kcat came out at 2.63 ± 0.15 s⁻¹ and the catalytic efficiency (kcat/Km) turned out to be 6170 ± 317 M⁻¹ s⁻¹.

B4: PsXR (wild-type NT-XR), Pichia stipitis xylose reductase (Scheffersomyces stipitis CBS 6054; K270S/N272P) (protein)
chain: MPSIKLNSGYDMPAVGFGCWKVDVDTCSEQIYRAIKTGYRLFDGAEDYANEKLVGAGVKKAIDEGIVKREDLFLTSKLWNNYHHPDNVEKALNRTLSDLQVDYVDLFLIHFPVTFKFVPLEEKYPPGFYCGKGDNFDYEDVPILETWKALEKLVKAGKIRSIGVSNFPGALLLDLLRGATIKPSVLQVEHHPYLQQPRLIEFAQSRGIAVTAYSSFGPQSFVELNQGRALNTSPLFENETIKAIAAKHGKSPAQVLLRWSSQRGIAIIPSSPTVPRLLENKDVNSFDLDEQDFADIAKLDINLRFNDPWDWDKIPIFV
On to B4, for which, in “purified protein [1]” (mutant 1-2F7, 0.5 M xylose), the Michaelis-Menten constant (Km) is on record as 0.512 ± 0.022 mM, the kcat was determined as 18.5 ± 1.3 s⁻¹ and the kcat/Km was determined as 36300 ± 2520 M⁻¹ s⁻¹. In “purified protein [2]” (mutant 1-2F7, 0.5 M xylose), the Km was 0.849 ± 0.045 mM, the kcat turned out to be 35.2 ± 3.93 s⁻¹ and the kcat/Km was 41700 ± 5000 M⁻¹ s⁻¹.

Source of the values: publication PMC2213684, “Altering coenzyme specificity of Pichia stipitis xylose reductase by the semi-rational approach CASTing” (Microbial Cell Factories, 2007).
